From the supplement of paper PMC9876800

Tested on: peptide library, one residue held at a place counted from the S/T acceptor
Experiment: relative phosphorylation of the sub-library (ratio to the mean residue at this position); higher = residue favoured
Details: human
Method in brief: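 Relative sub-library phosphorylation is a ratio to the mean residue at the same position. Purified recombinant kinases were incubated under kinase-specific conditions with biotinylated degenerate peptide sub-libraries, each fixing one residue at one position around a central Ser/Thr, using 50 μM peptide and 50 μM ATP spiked with γ-32P-ATP for 90 min. Spots captured on streptavidin membranes were phosphorimaged and quantified by densitometry.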

MTOR, construct: aa1362-end (from UniProt P42345)
relative phosphorylation
Details | at +1 | at +2 | at +3 | at +4 | at -1 | at -2 | at -3 | at -4 | at -5
A fixed | 0.644 | 0.815 | 1.08 | 0.948 | 0.839 | 1.52 | 0.751 | 0.924 | 0.888
D fixed | 0.338 | 1.2 | 1.11 | 0.821 | 0.489 | 0.686 | 0.747 | 1.1 | 1.21
E fixed | 0.342 | 0.889 | 1.07 | 0.829 | 0.709 | 0.643 | 0.983 | 1.09 | 1.04
F fixed | 1.72 | 0.686 | 0.647 | 1.01 | 1.01 | 1.09 | 1.09 | 1.08 | 1
G fixed | 0.613 | 0.903 | 1.43 | 1.21 | 2.83 | 1.58 | 1.01 | 0.942 | 1.07
H fixed | 0.556 | 1.24 | 1.17 | 1.28 | 1.18 | 1.05 | 1.14 | 1.21 | 1.15
I fixed | 0.707 | 0.686 | 0.601 | 0.706 | 0.433 | 0.88 | 0.778 | 0.747 | 0.593
K fixed | 0.487 | 1.58 | 1.35 | 1.36 | 0.986 | 0.854 | 0.924 | 0.879 | 1.1
L fixed | 1.43 | 1.16 | 0.756 | 0.695 | 0.698 | 0.682 | 0.938 | 0.956 | 0.724
M fixed | 1.02 | 0.673 | 0.694 | 0.868 | 1.13 | 0.705 | 1.05 | 1.07 | 0.807
N fixed | 0.452 | 1.12 | 1.33 | 0.968 | 1.36 | 0.954 | 0.986 | 0.939 | 0.923
P fixed | 2.13 | 1.31 | 0.993 | 0.872 | 0.786 | 1.56 | 1.09 | 0.955 | 1.47
Q fixed | 0.561 | 0.83 | 0.942 | 0.92 | 1.15 | 0.838 | 0.949 | 0.953 | 0.862
R fixed | 0.506 | 1.7 | 1.2 | 1.2 | 1.15 | 0.973 | 1.1 | 1.02 | 1.04
V fixed | 0.816 | 0.728 | 0.675 | 0.7 | 0.482 | 0.985 | 0.795 | 0.708 | 0.745
W fixed | 1.99 | 0.643 | 0.99 | 1.41 | 0.721 | 1.05 | 1.2 | 1.3 | 1.36
Y fixed | 2.68 | 0.836 | 0.972 | 1.2 | 1.05 | 0.956 | 1.47 | 1.13 | 1.01
pThr fixed | 0.637 | 1.71 | 1.67 | 1.27 | 0.546 | 1.01 | 1.15 | 1.34 | 1.16
pTyr fixed | 1.06 | 0.721 | 1 | 0.941 | 0.841 | 1.27 | 1.66 | 1.37 | 1.21
